# Test results taken from the supplement of paper PMC10126150.
# ± gives the standard deviation of the averaged measurements.
# Tested on: ATP
# Assay: switch fluorescence ratio, 500 uM ATP over buffer (Cy3 cluster intensity, sum of 5 cycles each) (fold (ratio)); higher = stronger signal-on switching upon ATP binding; sequences stand for … in TCGTCGGCAGCGTCAGATGTGTATAAGAGACAGTTTTTTTTTTTTTTTTTTTTTTTTT…TC
# Conditions: aptamer strand: ATP DNA aptamer (quencher-CACCTGGGGGAGTATTGCGGAGGAAGG + anchor), 100 nM annealed; ATP concentration: 500 uM
# Method in brief: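 After annealing to 100 nM quencher-labelled ATP aptamer, Cy3-labelled switching-strand clusters on a modified Illumina MiSeq flow-cell were imaged in selection buffer. A second image followed after 15 min with 500 uM ATP at 22 °C, and five such buffer/ATP cycles were done, each separated by NaOH stripping and re-annealing. The fluorescence ratio, averaged per switch-domain sequence, is summed target-cycle over summed buffer-cycle Cy3 intensity per cluster, with clusters outside 100-1000 RFU excluded.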
# 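Note: ATP exposure 15 min at 22 °C before imaging.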
row,Sequence,switch fluorescence ratio
1,GTATTTGAGT,0.991 ± 0.0031
2,GGGGAAATTG,0.983 ± 0.019
3,ATTCAAAAAA,0.999 ± 0.039
4,TTCATGGGAG,0.99 ± 0.022
5,TCATCAAGGG,0.965 ± 0.012
6,CGGATTCGAG,0.98 ± 0.035
7,TCCCGGGAAT,0.987 ± 0.031
8,GAGGCTTAAT,0.9822 ± 0.0078
9,AGGTGATATG,1.0171 ± 0.00075
10,TGGGGTAGTG,1.01 ± 0.025
11,TAGGGGAGAA,1.01 ± 0.014
12,CGCGCCGGGC,1.03 ± 0.057
13,CTTAGACCCC,1.01 ± 0.02
14,CTCGGGAGTA,1 ± 0.042
15,CGAACGAAAA,0.992 ± 0.04
16,GTAGGGGTTC,0.982 ± 0.042
17,GGATGGATTG,1.004 ± 0.0022
18,ATGGATGATG,0.991 ± 0.018
19,ATTTATTTGT,0.986 ± 0.03
20,GAACACGGTA,1.204 ± 0.0023
21,ATCGCGGATT,0.994 ± 0.023
22,CAAGCGGACT,1.06 ± 0.049
23,AAAGGTTTTT,0.988 ± 0.016

row,Sequence,switch fluorescence ratio
1,AAAGGTGATA,1.03 ± 0.037
2,ACCGGAGAGC,1.1 ± 0.18
3,AGAATAAGAC,1.02 ± 0.085
4,TGTTTAACAG,1.03 ± 0.05
5,TTAGCCGGAC,1.05 ± 0.013
6,AGAGGGCTAT,0.989 ± 0.038
7,TGCCGGAAGA,1.02 ± 0.029
8,TCTGGTCATG,0.995 ± 0.014
9,GTTTTCGTTT,0.9711 ± 0.0058
10,TGGGGGGGTA,0.991 ± 0.026
11,CGAGTAGAGG,1.02 ± 0.026
12,AGTTTGTGAC,0.989 ± 0.029
13,GGCGCGGGGA,1.02 ± 0.045
14,ACTTTTCGGT,1 ± 0.015
15,TGAAACTTGT,1.01 ± 0.041
16,GGAGGCCAGC,1.05 ± 0.075
17,GGTTTACCGG,0.987 ± 0.039
18,GGTGAATGCG,0.9779 ± 0.0048
19,GGGTATCTAT,1.012 ± 0.0067
20,ATTTATGCGG,0.985 ± 0.029
21,TGTGAATTCT,0.993 ± 0.023
22,AATTTGGCAG,0.99 ± 0.025
23,ATAGGCGGAA,1.02 ± 0.036

row,Sequence,switch fluorescence ratio
1,GGGAGGGTGG,0.996 ± 0.06
2,TCGGTCAGTA,1.002 ± 0.0036
3,GCGTATTTTT,1.01 ± 0.029
4,ATATATGGGG,0.987 ± 0.045
5,CAACGGTTTC,1.01 ± 0.019
6,GATGGGATTG,0.966 ± 0.037
7,GAGCATTCCG,1.003 ± 0.0051
8,CTGTAAGCGG,1.03 ± 0.03
9,TCTTTGACAG,1.02 ± 0.015
10,ATCTGAGTTA,1.03 ± 0.058
11,TTTTTCCAAC,1.02 ± 0.012
12,ACTAATATAT,0.999 ± 0.04
13,TTGCTTTGTT,1.0015 ± 0.001
14,CCAGGGGGTG,1.53 ± 0.32
15,CTTCTGGAGG,1.15 ± 0.028
16,TGTGTATGCT,0.9868 ± 0.0078
17,TATGTTATTA,0.984 ± 0.039
18,CCACGGGATT,1.08 ± 0.035
19,AATTTTGGGT,1 ± 0.041
20,CTCAAAAGTA,1.09 ± 0.11
21,AAAGAACGGG,1.04 ± 0.023
22,ATAGGAGTTA,0.9814 ± 0.0071
23,CGGAATATGG,1.0484 ± 0.001

row,Sequence,switch fluorescence ratio
1,TAATCACAAT,1.032 ± 0.0044
2,AATAGGTAG,0.976 ± 0.014
3,TATCTAATGC,1 ± 0.085
4,CCCGGGGGCA,1.21 ± 0.25
5,TGGAAAGTGT,0.987 ± 0.018
6,GCCCGTTCGG,1.01 ± 0.028
7,TAGAGGTTGG,0.981 ± 0.042
8,CATTAAGGTT,0.996 ± 0.01
9,GACGGGTTTC,0.991 ± 0.017
10,TCTGTCTCTG,1.01 ± 0.014
11,GTTTGGGGAG,0.977 ± 0.018
12,GACTCCTGAG,0.98 ± 0.033
13,GATAATTTGT,0.973 ± 0.065
14,TTGTATTTGT,0.999 ± 0.031
15,GGCGGCGTCT,0.998 ± 0.036
16,TTGGGGAACC,0.9866 ± 0.009
17,ATGAATAATG,1.01 ± 0.026
18,TTGTGGGTTT,1.05 ± 0.2
19,ATGTTGTGGT,0.987 ± 0.031
20,AGTTGGGTGG,1.04 ± 0.026
21,AAGAAGGGAG,0.982 ± 0.01
22,GGGTATAGGT,0.999 ± 0.016
23,GGGTGCGTTC,0.964 ± 0.027

row,Sequence,switch fluorescence ratio
1,GTCGGGAAGG,1.013 ± 0.0026
2,GTATATAAGT,0.98 ± 0.013
3,AGGGAGATTT,0.99 ± 0.03
4,AAATCGCGGA,1.05 ± 0.011
5,AACTGCAATT,2 ± 1.1
6,ATAATTATA,1.01 ± 0.018
7,TGCGGAAGTT,1.01 ± 0.023
8,TTAGTAGGGG,1 ± 0.021
9,AGGCGTGGCT,0.982 ± 0.064
10,GGATAGTCAG,0.984 ± 0.016
11,GATCAGGGGT,1.06 ± 0.044
12,GGCGCTCACA,1.04 ± 0.028
13,CCAATCAGGT,1.08 ± 0.097
14,TTTTTTGTTC,1.14 ± 0.3
15,AGACGATTGG,0.974 ± 0.076
16,TAAAAATGAG,1.014 ± 0.0069
17,ATTCTAGTCG,1.02 ± 0.086
18,CCTTTTGTAC,1.386 ± 0.011
19,CCCTGAATTG,0.984 ± 0.053
20,GTGGGGAGCG,0.994 ± 0.029
21,GTTGTTTTCG,0.987 ± 0.039
22,GCATTGGTGG,1.03 ± 0.019
23,CCAAAGAATT,1.03 ± 0.059

row,Sequence,switch fluorescence ratio
1,TTTGGTAGGG,1.02 ± 0.021
2,ACTTGTTCAT,1.01 ± 0.033
3,GGATGATGCA,1.03 ± 0.028
4,GAATAGCATA,1.05 ± 0.018
5,AAATCCAATA,1.0106 ± 0.0007
6,TAAGATCTTA,0.997 ± 0.015
7,TGAAAGTATT,1 ± 0.022
8,AGGATTTACT,1.01 ± 0.026
9,TTTTAATGTC,0.984 ± 0.027
10,CATAACGTAC,1.97 ± 0.21
11,CAGAGTTTTA,1.02 ± 0.015
12,CTTGTGGTGG,1.006 ± 0.0089
13,TCAAGTGAGG,1.01 ± 0.011
14,CCGGGTATCC,1.19 ± 0.18
15,TAAGAAGTTA,1.02 ± 0.03
16,TTGGGCCCCT,0.9967 ± 0.0024
17,GGTTTAGGGC,0.992 ± 0.066
18,GGAGTATATC,1.08 ± 0.073
19,TTTTTCGGCA,1.31 ± 0.43
20,CAACGGGCGG,1 ± 0.019
21,TTTATCTGCT,0.981 ± 0.037
22,AAAGAGTTGA,1 ± 0.022
23,TCTGTTGGAC,0.997 ± 0.024

row,Sequence,switch fluorescence ratio
1,AGGTTAACAG,0.9909 ± 0.0073
2,CTGCGTGCGG,0.99635 ± 0.00049
3,ATAGGGAATT,1 ± 0.024
4,CGTCTAACGC,1.02 ± 0.029
5,TTATGTGTGT,0.996 ± 0.028
6,GTGGAAAGGG,1.01 ± 0.041
7,TCCAACTGCT,1.037 ± 0.0035
8,AATTGGGATG,0.975 ± 0.034
9,GATGGAGTGT,0.978 ± 0.018
10,ACAGTCGTCT,0.949 ± 0.042
11,TAGGGGGCCA,1.014 ± 0.004
12,TCAATGGGGA,0.998 ± 0.013
13,ACTTCACATA,1.35 ± 0.042
14,AATTACTTTA,1.03 ± 0.029
15,CGGACAGGAG,0.98 ± 0.051
16,TGGGGCACGG,1.09 ± 0.19
17,GTGTGACAAA,1 ± 0.037
18,TAGAGGGTTG,0.969 ± 0.02
19,CCATATTGTG,1.02 ± 0.016
